In paper PMC4772129, “nagZ Triggers Gonococcal Biofilm Disassembly” (Scientific Reports, 2016):

Test system: CC(=O)N[C@H]1[C@H](Oc2ccc([N+](=O)[O-])cc2)O[C@H](CO)[C@@H](O)[C@@H]1O
Test: purified protein
Settings: KPO4 buffer 200 mM, pH 8.0, 37 °C (standard assay)

**Q.** Which Km does the source give for NagZ (Neisseria gonorrhoeae FA 1090) here?
**A.** 3.2 mM
